Test results from patent US20030207330A1 (DYAX, published 2003).
fluorescein = fluorescein label, attached with NHS-fluorescein

Molecular target: T1, fibrinogen (species not stated); biotinylated fibrinogen on streptavidin plates in the phage ELISA, free … (Homo sapiens (Human), UniProt P02671 20-644); P02675 31-491; P02679 27-437, Biotinylated at unstated positions in the phage ELISA and unlabelled in the anisotropy assay. The native molecule is a disulfide-linked dimer of the three chains, (A-alpha B-beta gamma)2, and is …)
T1 construct: also called Fgn; fibrinogen target
T1 sequence (alpha): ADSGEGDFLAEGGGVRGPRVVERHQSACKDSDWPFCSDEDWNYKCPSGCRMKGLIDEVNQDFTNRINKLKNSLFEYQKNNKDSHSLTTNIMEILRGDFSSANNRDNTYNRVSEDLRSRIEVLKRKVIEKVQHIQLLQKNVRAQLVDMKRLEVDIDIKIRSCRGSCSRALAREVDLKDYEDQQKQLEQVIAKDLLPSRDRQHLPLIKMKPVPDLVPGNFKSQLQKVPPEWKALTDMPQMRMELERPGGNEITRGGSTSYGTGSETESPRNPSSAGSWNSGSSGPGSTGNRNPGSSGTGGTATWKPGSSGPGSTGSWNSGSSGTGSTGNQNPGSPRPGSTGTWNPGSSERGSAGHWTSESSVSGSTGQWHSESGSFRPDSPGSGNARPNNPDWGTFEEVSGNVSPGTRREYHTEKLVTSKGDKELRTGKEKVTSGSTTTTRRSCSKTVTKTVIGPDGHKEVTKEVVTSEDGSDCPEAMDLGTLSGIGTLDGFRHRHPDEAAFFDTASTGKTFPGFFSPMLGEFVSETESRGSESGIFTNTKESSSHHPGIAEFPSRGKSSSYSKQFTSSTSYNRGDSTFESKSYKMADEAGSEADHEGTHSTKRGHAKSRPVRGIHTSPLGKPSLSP
T1 sequence (beta): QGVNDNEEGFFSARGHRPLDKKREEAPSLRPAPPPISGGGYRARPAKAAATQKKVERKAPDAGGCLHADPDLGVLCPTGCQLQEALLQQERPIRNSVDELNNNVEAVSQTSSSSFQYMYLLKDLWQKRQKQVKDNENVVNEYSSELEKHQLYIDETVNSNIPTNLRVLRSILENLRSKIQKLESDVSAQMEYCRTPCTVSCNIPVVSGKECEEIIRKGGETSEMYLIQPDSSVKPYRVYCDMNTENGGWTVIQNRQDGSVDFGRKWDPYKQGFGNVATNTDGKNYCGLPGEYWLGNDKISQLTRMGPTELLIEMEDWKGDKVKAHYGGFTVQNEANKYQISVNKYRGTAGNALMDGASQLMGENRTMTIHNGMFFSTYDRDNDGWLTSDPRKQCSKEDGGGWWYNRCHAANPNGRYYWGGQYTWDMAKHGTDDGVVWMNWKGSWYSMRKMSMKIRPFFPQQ
T1 sequence (gamma): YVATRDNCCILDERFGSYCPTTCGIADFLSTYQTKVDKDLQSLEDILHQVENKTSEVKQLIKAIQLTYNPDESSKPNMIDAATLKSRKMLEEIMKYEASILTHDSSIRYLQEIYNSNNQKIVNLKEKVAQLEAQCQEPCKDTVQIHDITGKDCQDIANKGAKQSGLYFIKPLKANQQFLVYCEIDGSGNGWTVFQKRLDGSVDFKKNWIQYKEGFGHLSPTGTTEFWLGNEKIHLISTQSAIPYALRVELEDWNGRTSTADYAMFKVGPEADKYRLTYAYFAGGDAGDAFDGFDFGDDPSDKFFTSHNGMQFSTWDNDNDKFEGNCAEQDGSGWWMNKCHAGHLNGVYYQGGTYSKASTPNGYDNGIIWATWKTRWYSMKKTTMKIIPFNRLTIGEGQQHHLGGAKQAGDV
Assay: fluorescence anisotropy, 20 nM fluorescein-labeled peptide, fibrinogen varied, 30° C., 1:1 fit
Procedure: An apparent dissociation constant was determined for a selected polypeptide. For this determination, the polypeptide was labeled on the C-terminal end with NHS-fluorescein. Fluorescence anisotropy measurements were performed in 384-well microplates in a volume of 10 μl in binding buffer using a Tecan Polarion fluorescence polarization plate reader. The concentration of fluorescein labeled peptide was held constant (20 nM), and the concentration of fibrinogen was varied. The polypeptide was tested in the same binding buffer as used in the selection. The binding mixture was equilibrated for 10 minutes in the microplate at 30° C. prior to performing the measurement. The observed change in anisotropy was fit to the equation below via nonlinear regression to obtain the apparent KD. This equation assumes that the polypeptide and fibrinogen form a reversible complex with 1:1 stoichiometry.

B1: fluorescein-labeled synthetic polypeptide based on the TN10/IX polypeptide of SEQ ID NO: 43 (peptide)
peptide: Ac-LYLCNSYPMHPYCNPSGGGK(fluorescein)-NH2
modifications: cysteine pairing not given here; also: retained phage-derived N- and C-terminal dipeptides, which ones not given here
notes: Commercial FMOC solid phase synthesis; also called selected polypeptide; not shown: retained phage-derived N-terminal dipeptide (Gly-Ser-, Ala-Gly- or Gly-Asp-); retained phage-derived C-terminal dipeptide (-Ala-Pro, -Gly-Thr or -Asp-Pro)
  Kd: 2 µM
